Assay: soluble on expression in E. coli; label from the status in PepcDB or PDB records

Row | Sequence | soluble on expression in E. coli
1 | MSLMLSHNPIVEPFALAHATIVTGDKAGTILRNMTIVVGADGRIEQVAPSIETSIPAEYHYLDGTGKIVMPGLINAHTHLFSQGKPLNPKLATPKGQRMVATFAHSPLGKPYMAATVKHNATTLLESGVTTIRTLGDVGYEVVTLRDQIDAGQILGPRILASGPLMAIPEGHGAPLIALTSGTPEEARTAVAQNLKAGVNAIKIAATGGVTDAQEIGEAGSPQMSVEQMRAICDEAHQYGVIVGAHAQSPEGVRRSLLAGVDTIEHGSVLDDELIGMFRHNPNALRGYSALIPTLSAGLPLTLLGQDVTGITDIQLENSKNVVGGMVSGARQAHEAGLMIGVGTDTGMTFVPQYATWRELELLVAYAGFSPAEALHAATAVNASILGVDAETGSLEVGKSADLLVLNANPLDDLRALEHPALVIAAGHPVWRPGPKRFADIDALLDEAYAEGHHHHHH | soluble
2 | MGSDKIHHHHHHMAQQKPHDVNEPSRRRLLKGIGALGGALAITGGCPVAHAAKAESSPGTLTPDARQEKQPFYGRHQAGILTPQQASMMLVAFDVLAADKADLERLFRLLTQRIAFLTQGGPAPDTPNPRLPPMDSGILGPWIAPDNLTITVSVGHSLFDERFGLADKAPKKLQPMTRFPNDSLDAALCHGDLLLQICANTQDTVIHALRDVIKHTPDLLSVRWKREGFISDSAARSKGKETPINLLGFKDGTANPASHDSALMDKVVWVTADQDEPAWTVGGSYQAARIIQFHVEFWDRTPLKEQQTIFGRDKHTGAPLGMKNEHDTPDYSKDPNGEVIALDSHIRLANPRTPETQSSLMMRRGYSYSLGVTNAGQLDMGLLFVCYQHDLEKGFLTVQKRLNGEALEEYVKPIGGGYFFVLPGVVDEKHYLGESLLQA | not soluble
3 | MAAAKIKKGDTVLVVRGKEKGKQGKVLKVYERVKRRDKQGNPVYVRHFVIVEGVRLIKKHVKPIEGVREGGIIETEGPIDISNVMLICPNCNKPTRVGFRIVEEGNVRRKYRYCKKCNENIDLVSEKVIKGG | soluble
4 | MKKWVCTVCGYIYDEDAGDPDNGISPGTKFEELPDDWVCPLCGVGKDQFEKLED | soluble
5 | MGHHHHHHSHQADEGQARKSQLQRRFKEFLRQYRVGTDRTGFTFKYRDELKRHYNLGEYWIEVEMEDLASFDEDLADYLYKQPAEHLQLLEEAAKEVADEVTRPRPSGEEVLQDIQVMLKSDASPSSIRSLKSDMMSHLVKIPGIIIAASAVRAKATRISIQCRSCRNTLTNIAMRPGLEGYALPRKCNTDQAGRPKCPLDPYFIMPDKCKCVDFQTLKLQELPDAVPHGEMPRHMQLYCDRYLCDKVVPGNRVTIMGIYSIKKFGLTTSRGRDRVGVGIRSSYIRVLGIQVDTDGSGR | not soluble
6 | MGSDKIHHHHHHMKQNLTLILMNEAVREGWREWMEKVRKVLPQTDAERPVTWIAAERLAQENGRMVRLVELLREHRPVLSYRVKEEAGLLILVAYHRHGSSSDFLLETAEAYFRERDCGGFLFLCRMQASINAYDEYPHLNVLCNRLAGLLFRFRRERASEYRKGIPPMFSGADLQEVEKYLPHLRGCSFREEIALALPKVKNVEELARECAMSVNTLGRRFKEELNTTPHRWLTEQRKAHVTSLLADTDMPLQEIADVCGFATPSYLWDFCKKHLKATPAEIREIARCARTV | not soluble
7 | YTIEELVKQADQQFNGNIAELMIATEVEMSGRNREDIIKIMSRNLQVMKAAVTEGLTSTKSISGLTGGDAVKMDNYIKKGNSLSDTTILNAVRNAIAVNELNAKMGLVCATPTAGSAGCLPAVLATAIEKLDLSEKEQLEFLFTAGAFGLVIGNNASISGAEGGCQAE | not soluble
8 | MSNENKTIHDFELNLICDFFSNMERQGPGSPEVTLKALSFIDNLTEKSLIADIGCGTGGQTMVLAGHVTGQVTGLDFLSGFIDIFNRNARQSGLQNRVTGIVGSMDDLPFRNEELDLIWSEGAIYNIGFERGLNEWRKYLKKGGYLAVSECSWFTDERPAEINDFWMDAYPEIDTIPNQVAKIHKAGYLPVATFILPENCWTDHYFTPKVAAQKIFLTKYAGNKIAEEFSMLQSIEEELYHKYKEYYGYTFFIAKKIRLLEHHHHHH | soluble
9 | MGSDKIHHHHHHMSFDNLCKLLSEKHPATFASWVLGTPQTSVKVLKTELSIEPIRADYVTFLQLQGRILHLEFQTKLESTPPLPLRMLDYWVRLYRLYRLPITQVVVLLLPPAPGTVIETVFCVETTRHEYRVIRLWEENPELFLNEPALLPLAPLAATTQPQALLQQVVGKVNQLEPRQRPEISAYTQILAGLKYNQDLIRQLFREGMMRESVIYQEILAEGEQLGELRGRKAEGQLLILRQLTRRVGELPQEMLNRIETLSLEQLENLGEALLDFQAIADLEAWFGTLDIGVKMT | not soluble
10 | MQSCLRLAASLLSAALLCLPAPGAAQTASPAKKELLKFNWGAPTADYYALYVAKDQKLFEEVGLEPNFYFFPSGAPLLAGLKSKSLDVITTGLATVFALGQNVPLKLIYWELDHAAAEGLVVDPAAGIKSYKDIAKAKAIGAPSGTCAQVSLVLMAKELNLKYSNLNIINIAPPLYGNAFKSKSIQAAVAWSPYSSILNADQLPVVNWASDYTPDQGVCPGLTGVRTEFMQQHPDIGLKLVQVQAKAMDMIRKDPELGIGVLMKYLSVSREVAKHIYDREFSRIPTYAQQIDPASPYSLAAKDAGLARKLLIASQALAEVGTIPAPLTPQAIAEAIDPSAIQRYMKGERK | not soluble
11 | MMGMAVSTKLSIDEVNMLEKEDFVTKIGPIFEHSPWVAERAWAHRPFTSAENMYECMLEKVYEADKRLQLALLRAHPDLGTRLEISETSQSEQQRAGLSQLTEEEFAVFAELNKCYVDTFRFPFIMAVRGQTKNSIKEQMRKRLVNDEEQERKTALREVAKIAKFRLADLVVMGSRSLEHHHHHH | soluble
12 | MNILYTVENSIYVNITNTCPCSCVFCIRNEKDEVANSGSLWLEHEPSVDEVKEAFNKYNLDDYDEIVFCGYGEPLMRINELIDVAKFIKEKSSIKIRINTNGLSDLIHNKKTAILLKDVIDAVSISLNAPNKEAYNRVTQPKFGEKSFDYMLDFAKDCKKYIKEVAFSVVDEISPEEIEESKQLAKKLDIPLRVRHKN | not soluble
13 | MQFLSIGVNDDADSLKEYLINELARNNKKNINYLVRDVADSEGSTSIICSLADNDAPSDMNSHLYKELVLNVSNALATFIIDKYEEKLIYRIINSNYCYFTQAERKEIQRLTLAIIKNEERNLLNSFFQIRRKNIIIKRLLEYFESSNTVILDGFVNFRLKDYMKDLEEIVEKAVDDFLMEREYREFIRLLRYFVDIQEPKFNAVHIIAGYDNKYVLLDENKNEITNECLQEFVNDIPEGEINYDDLLVSSLITMAPRKLVIHGAKSFRNKELLETIKNVFWGKVVICSECELCMVNMVRSENKSQI | not soluble
14 | MGSDKIHHHHHHMINYMIPKGFLCCGKHVGIKKRKLDLGVVYSEKLCSAAAVFTKNKFCGIPIIVGKENIKDNKLQSIVVTSGVANVATGEEGLKNTYRILNKLSCELNIKSENILPSSTGIIGKQLPIDCIITGINGIKSSLSKYNWEEFNRAIMTTDKELKIKSCKIGDATVLGIAKGSGMIEPNMATMLAYFFTDASIKAVELKGILKRAVDKSFNMISIDHDTSTSDTAAILANGYVGNVNLEVFEKTFTDMCIDMAKDIVRDGEGVSKLIEATVMGCSSFESAKVIAKSIINSPLVKIAIYGSDPNWGRIAMAIGKSFEDDVDPLKIEIAFNSNVIYDKGKIYEENFDCIERYLRDNNECKIQANLNVGDFAATVWGSDFTEDYIRINSYYTKRK | not soluble
15 | GMAEKQYDFTHVPKRQGNSIKWGVLKEKELPMWIAEMDFKIAPEIMASMEEKLKVAAFGYESVPAEYYKAVADWEEIEHRARPKEDWCVFASGVVPAISAMVRQFTSPGDQILVQEPVYNMFYSVIEGNGRRVISSDLIYENSKYSVNWADLEEKLATPSVRMMVFCNPHNPIGYAWSEEEVKRIAELCAKHQVLLISDEIHGDLVLTDEDITPAFTVDWDAKNWVVSLISPSKTFNLAALHAACAIIPNPDLRARAEESFFLAGIGEPNLLAIPAAIAAYEEGHDWLRELKQVLRDNFAYAREFLAKEVPEVKVLDSNASYLAWVDISALGMNAEDFCKYLREKTGLIISAGNGYRGNGHEFVRINLACPKELVIDGMQRLKQGVLNLNN | soluble
16 | ALSGGFIKGFAHLGVMQALLEHDIKPDIISGVSAGALAGVFYADGNEPHQVIEYFSGHKFQDLTKLVIPKKGLFDLCEFIDFLHTNLKAKNLEELQIPLIITATDLDHGRMVHFHRGSIAERVAASCCMPVMFAPVNIDGTNYVDGGLMMNLPVSTLRRICDKVVAVNVSPIMAQDYKMNIVSIAMRSFHFMFRANTFPEREKCDLLIEPYNLYGYSNTELEKAEEIFEQGYKIAND | not soluble
